Values belong to the binder of their own block, whether it stands above or below them.
Assays:
[1] = target: T1, tau aggregates in HEK293 tau biosensor cells (4R repeat domain of tau (K18) with the P301S mutation fused to … (UniProt P10636-8 244-372)); assay: Halo (JF646) imaging in seeded HEK293 tau biosensor cells
T1 construct: domain: 4R repeat domain of tau (K18); Aggregated, insoluble form inside cells; the aggregates are seeded with brain homogenate of tau transgenic mice and may hold other proteins and RNA; Number of chains in an aggregate not defined; also called cytoplasmic tau aggregates; nuclear tau aggregates; not shown: CFP or YFP fused to the repeat domain
T1 sequence (P10636 561-689 P618S): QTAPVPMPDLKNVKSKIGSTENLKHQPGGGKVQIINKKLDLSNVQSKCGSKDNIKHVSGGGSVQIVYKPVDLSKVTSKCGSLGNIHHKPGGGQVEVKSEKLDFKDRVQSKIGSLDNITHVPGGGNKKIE

[2] = target: T1, tau aggregates in HEK293 tau biosensor …; assay: Halo (JF646) imaging; intensity in aggregate over adjacent region, five aggregates
Source text: The locations of the serine repeats are shown in yellow. B) Quantification of the enrichment of the various Halo tagged constructs in cytoplasmic tau aggregates. Cells both expressing the halo tagged construct and containing a tau aggregate were identified by hand, and the average Halo intensity within the tau aggregates were normalized by an adjacent region outside of the tau aggregate to calculate enrichment. […] C) Representative images of cells expressing the various Halo tagged C-terminal SRRM2 fragments. Cells were labeled with 200 nM JF646 added directly to culture media for 24 hours prior to fixation and imaging.

[3] = target: T1, tau aggregates in HEK293 tau biosensor …; assay: Halo (JF646) imaging; intensity in aggregate over adjacent region, 5 aggregates
[4] = target: T1, tau aggregates in HEK293 tau biosensor …; assay: cell-based or functional assay

binding result [1]: no binding | mean enrichment in cytoplasmic tau aggregates [2]: 1.08 ratio
B1: Halo alone (other)
chain: MAEIGTGFPFDPHYVEVLGERMHYVDVGPRDGTPVLFLHGNPTSSYVWRNIIPHVAPTHRCIAPDLIGMGKSDKPDLGYFFDDHVRFMDAFIEALGLEEVVLVIHDWGSALGFHWAKRNPERVKGIAFMEFIRPIPTWDEWPEFARETFQAFRTTDVGRKLIIDQNVFIEGTLPMGVVRPLTEVEMDHYREPFLNPVDREPLWRFPNELPIAGEPANIVALVEEYMDWLHQSPVPKLLFWGTPGVLIPPAEAARLAKSLPNCKAVDIGPGLNLLQEDNPDLIGSEIARWLSTLEISG
modifications: JF646 Halo ligand covalently bound
notes: Control without a targeting motif; also called Halo tag; Halo protein

binding result [1]: no binding | mean enrichment in cytoplasmic tau aggregates [2]: 1.1 ratio
B4: Frag_0-Halo (SRRM2 a.a. 2651-2752) (other)
chain: PAKPGPQALPKPASPKKPPPGERRSRSPRKPIDSLRDSRSLSYSPVERRRPSPQPSPRDQQSSSSERGSRRGQRGDSRSPSHKRRRETPSPRPMRHRSSRSPMAEIGTGFPFDPHYVEVLGERMHYVDVGPRDGTPVLFLHGNPTSSYVWRNIIPHVAPTHRCIAPDLIGMGKSDKPDLGYFFDDHVRFMDAFIEALGLEEVVLVIHDWGSALGFHWAKRNPERVKGIAFMEFIRPIPTWDEWPEFARETFQAFRTTDVGRKLIIDQNVFIEGTLPMGVVRPLTEVEMDHYREPFLNPVDREPLWRFPNELPIAGEPANIVALVEEYMDWLHQSPVPKLLFWGTPGVLIPPAEAARLAKSLPNCKAVDIGPGLNLLQEDNPDLIGSEIARWLSTLEISG
modifications: JF646 Halo ligand covalently bound to the Halo tag
notes: PCR amplified from the SRRM2_FL-Halo cell line and expressed from a pcDNA plasmid with an added start codon

Further lines, the binder ahead of its results:

B2: Halo tagged 5 serine repeat (other)
chain: SSSSSMAEIGTGFPFDPHYVEVLGERMHYVDVGPRDGTPVLFLHGNPTSSYVWRNIIPHVAPTHRCIAPDLIGMGKSDKPDLGYFFDDHVRFMDAFIEALGLEEVVLVIHDWGSALGFHWAKRNPERVKGIAFMEFIRPIPTWDEWPEFARETFQAFRTTDVGRKLIIDQNVFIEGTLPMGVVRPLTEVEMDHYREPFLNPVDREPLWRFPNELPIAGEPANIVALVEEYMDWLHQSPVPKLLFWGTPGVLIPPAEAARLAKSLPNCKAVDIGPGLNLLQEDNPDLIGSEIARWLSTLEISG
modifications: JF646 Halo ligand covalently bound to the Halo tag
notes: also called 5-serines
mean enrichment in cytoplasmic tau aggregates [3]: 0.95 ratio

B3: Halo tagged 10 serine repeat (other)
chain: SSSSSSSSSSMAEIGTGFPFDPHYVEVLGERMHYVDVGPRDGTPVLFLHGNPTSSYVWRNIIPHVAPTHRCIAPDLIGMGKSDKPDLGYFFDDHVRFMDAFIEALGLEEVVLVIHDWGSALGFHWAKRNPERVKGIAFMEFIRPIPTWDEWPEFARETFQAFRTTDVGRKLIIDQNVFIEGTLPMGVVRPLTEVEMDHYREPFLNPVDREPLWRFPNELPIAGEPANIVALVEEYMDWLHQSPVPKLLFWGTPGVLIPPAEAARLAKSLPNCKAVDIGPGLNLLQEDNPDLIGSEIARWLSTLEISG
modifications: JF646 Halo ligand covalently bound to the Halo tag
notes: also called 10-serines
mean enrichment in cytoplasmic tau aggregates [3]: 1.05 ratio

B5: SRRM2 C-terminus-TNPO3-halo (other)
chain: MEGAKPTLQLVYQAVQALYHDPDPSGKERASFWLGELQRSVHAWEISDQLLQIRQDVESCYFAAQTMKMKIQTSFYELPTDSHASLRDSLLTHIQNLKDLSPVIVTQLALAIADLALQMPSWKGCVQTLVEKYSNDVTSLPFLLEILTVLPEEVHSRSLRIGANRRTEIIEDLAFYSSTVVSLLMTCVEKAGTDEKMLMKVFRCLGSWFNLGVLDSNFMANNKLLALLFEVLQQDKTSSNLHEAASDCVCSALYAIENVETNLPLAMQLFQGVLTLETAYHMAVAREDLDKVLNYCRIFTELCETFLEKIVCTPGQGLGDLRTLELLLICAGHPQYEVVEISFNFWYRLGEHLYKTNDEVIHGIFKAYIQRLLHALARHCQLEPDHEGVPEETDDFGEFRMRVSDLVKDLIFLIGSMECFAQLYSTLKEGNPPWEVTEAVLFIMAAIAKSVDPENNPTLVEVLEGVVRLPETVHTAVRYTSIELVGEMSEVVDRNPQFLDPVLGYLMKGLCEKPLASAAAKAIHNICSVCRDHMAQHFNGLLEIARSLDSFLLSPEAAVGLLKGTALVLARLPLDKITECLSELCSVQVMALKKLLSQEPSNGISSDPTVFLDRLAVIFRHTNPIVENGQTHPCQKVIQEIWPVLSETLNKHRADNRIVERCCRCLRFAVRCVGKGSAALLQPLVTQMVNVYHVHQHSCFLYLGSILVDEYGMEEGCRQGLLDMLQALCIPTFQLLEQQNGLQNHPDTVDDLFRLATRFIQRSPVTLLRSQVVIPILQWAIASTTLDHRDANCSVMRFLRDLIHTGVANDHEEDFELRKELIGQVMNQLGQQLVSQLLHTCCFCLPPYTLPDVAEVLWEIMQVDRPTFCRWLENSLKGLPKETTVGAVTVTHKQLTDFHKQVTSAEECKQVCWALRDFTRLFRGTELGSTSPVWWNSADIQSRCLIAQTTPVAGSQSLSSGAVATTTSSAGDHNGMLSVPAPGVPHSDVGEPPASTGAQQPSALAALQPAKERRSSSSSSSSSSSSSSSSSSSSSSSSSGSSSSDSEGSSLPVQPEVALKRVPSPTPAPKEAVREGRPPEPTPAKRKRRSSSSSSSSSSSSSSSSSSSSSSSSSSSSSSSSSSSSSSSSSSPSPAKPGPQALPKPASPKKPPPGERRSRSPRKPIDSLRDSRSLSYSPVERRRPSPQPSPRDQQSSSSERGSRRGQRGDSRSPSHKRRRETPSPRPMRHRSGGSGGSGGGSEIGTGFPFDPHYVEVLGERMHYVDVGPRDGTPVLFLHGNPTSSYVWRNIIPHVAPTHRCIAPDLIGMGKSDKPDLGYFFDDHVRFMDAFIEALGLEEVVLVIHDWGSALGFHWAKRNPERVKGIAFMEFIRPIPTWDEWPEFARETFQAFRTTDVGRKLIIDQNVFIEGTLPMGVVRPLTEVEMDHYREPFLNPVDREPLWRFPNELPIAGEPANIVALVEEYMDWLHQSPVPKLLFWGTPGVLIPPAEAARLAKSLPNCKAVDIGPGLNLLQEDNPDLIGSEIARWLSTLEISG
tau aggregation by flow cytometry (FRET+ cells and integrated FRET density, normalized to no insert Halo) [4]: ~50 % decrease

— patent US20250215059A1 (REGENTS OF THE UNIVERSITY OF COLORADO A BODY CORPORATE, published 2025)
